This passage reports decrease of co-IP in cells expressing Myc-DISC1-37W against cells expressing Myc-DISC1 results from paper PMC3900104.

This assay deals with endogenous Miro1 of COS7 cells (monkey (endogenous in COS7)). Put plainly: co-IP; COS7 cells co-transfected with FLAG-TRAK1 plus Myc-DISC1 or Myc-DISC1-37W, or empty vectors; IP with Miro1 antibody (endogenous Miro1); for quantification IP buffer with 0.1% SDS.
Sequence of endogenous Miro1 of COS7 cells (monkey (endogenous in COS7)) (Q8IXI2 whole entry): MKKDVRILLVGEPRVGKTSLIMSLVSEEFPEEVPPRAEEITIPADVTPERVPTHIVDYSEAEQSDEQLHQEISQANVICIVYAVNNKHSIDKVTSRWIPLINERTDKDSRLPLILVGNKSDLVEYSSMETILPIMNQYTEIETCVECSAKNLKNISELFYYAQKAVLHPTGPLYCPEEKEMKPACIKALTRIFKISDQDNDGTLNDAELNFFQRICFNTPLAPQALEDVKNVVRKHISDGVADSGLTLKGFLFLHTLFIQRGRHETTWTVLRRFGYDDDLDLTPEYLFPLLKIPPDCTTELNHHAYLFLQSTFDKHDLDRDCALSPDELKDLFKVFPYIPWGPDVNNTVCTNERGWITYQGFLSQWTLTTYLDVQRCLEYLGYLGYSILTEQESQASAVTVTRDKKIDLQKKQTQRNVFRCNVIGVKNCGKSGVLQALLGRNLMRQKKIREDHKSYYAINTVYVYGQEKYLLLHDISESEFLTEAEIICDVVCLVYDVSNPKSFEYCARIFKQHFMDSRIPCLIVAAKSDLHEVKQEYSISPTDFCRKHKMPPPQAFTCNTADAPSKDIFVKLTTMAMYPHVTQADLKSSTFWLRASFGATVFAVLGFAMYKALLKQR

B1: FLAG-tagged TRAK1 (trafficking-protein-Kinesin-binding-1), aa 2-953, in COS7 (natural protein)
chain: ALVFQFGQPVRAQPLPGLCHGKLIRTNACDVCNSTDLPEVEIISLLEEQLPHYKLRADTIYGYDHDDWLHTPLISPDANIDLTTEQIEETLKYFLLCAERVGQMTKTYNDIDAVTRLLEEKERDLELAARIGQSLLKKNKTLTERNELLEEQVEHIREEVSQLRHELSMKDELLQFYTSAAEESEPESVCSTPLKRNESSSSVQNYFHLDSLQKKLKDLEEENVVLRSEASQLKTETITYEEKEQQLVNDCVKELRDANVQIASISEELAKKTEDAARQQEEITHLLSQIVDLQKKAKACAVENEELVQHLGAAKDAQRQLTAELRELEDKYAECMEMLHEAQEELKNLRNKTMPNTTSRRYHSLGLFPMDSLAAEIEGTMRKELQLEEAESPDITHQKRVFETVRNINQVVKQRSLTPSPMNIPGSNQSSAMNSLLSSCVSTPRSSFYGSDIGNVVLDNKTNSIILETEAADLGNDERSKKPGTPGTPGSHDLETALRRLSLRRENYLSERRFFEEEQERKLQELAEKGELRSGSLTPTESIMSLGTHSRFSEFTGFSGMSFSSRSYLPEKLQIVKPLEGSATLHHWQQLAQPHLGGILDPRPGVVTKGFRTLDVDLDEVYCLNDFEEDDTGDHISLPRLATSTPVQHPETSAHHPGKCMSQTNSTFTFTTCRILHPSDELTRVTPSLNSAPTPACGSTSHLKSTPVATPCTPRRLSLAESFTNTRESTTTMSTSLGLVWLLKERGISAAVYDPQSWDRAGRGSLLHSYTPKMAVIPSTPPNSPMQTPTSSPPSFEFKCTSPPYDNFLASKPASSILREVREKNVRSSESQTDVSVSNLNLVDKVRRFGVAKVVNSGRAHVPTLTEEQGPLLCGPPGPAPALVPRGLVPEGLPLRCPTVTSAIGGLQLNSGIRRNRSFPTMVGSSMQMKAPVTLTSGILMGAKLSKQTSLR
Consider B1, for which the decrease of co-IP in cells expressing Myc-DISC1-37W against cells expressing Myc-DISC1 came out at 20%.
